Experimental data as given in patent US20240009285A1 (REGENERATIVE RESEARCH FOUNDATION, published 2024).

B1: VHH-4C-N77D (VHH)
VHH: VQLVESGGGGLVQPGGSLRLSCVTPGGIFSDYAMGWYRQAPGKQRELVADITVSDTTRYSDPVKGRFTISRDNAKDMVYLQMNSLKPEDAAIYTCNAQKWEDRYGSSERYDYWGQGTQVTVSS
notes: Unfused nanobody as named in the SPR statement; also called VHH-N77D
B2: scFv-V-hPEST-D433A (scFv, V domains shown)
VH: QVQLVESGGGLVKPGGSLRLSCAASGFTFSSYAMSWVRQAPGKGLEWVAAISGSGDNTYYADSVKGRFTISRDNSENTVHLQMAGLRAEDTALYFCAKDGPEVGNPGGYFDFWGRGTLVTVSS
B3: scFv-N-hPEST-S445A (scFv, V domains shown)
VH: QVQLVESGGGLVKPGGSLRLSCAASGFTFSSYAMSWVRQAPGKGLEWVAAISGSGDNTYYADSVKGRFTISRDNSENTVHLQMAGLRAEDTALYFCAKDGPAVGNPGGYFDFWGRGTLVTVSS
B4: scFv-N-hPEST-D433A (scFv, V domains shown)
VH: QVQLVESGGGLVKPGGSLRLSCAASGFTFSSYAMSWVRQAPGKGLEWVAAISGSGDNTYYADSVKGRFTISRDNSENTVHLQMAGLRAEDTALYFCAKDGPAVGNPGGYFDFWGRGTLVTVSS

Assays:
[1] = molecular target: human α-synuclein protein (human, UniProt P37840 1-140); experiment: surface plasmon resonance (SPR); no numbers given
GFP-Tau-(0N4R) = GFP-Tau-(0N4R) (human, UniProt P10636-6 1-383); experiment: cell-based or functional assay
Chain of GFP-Tau-(0N4R) (P10636 other isoform, or with tags, fused parts or gaps): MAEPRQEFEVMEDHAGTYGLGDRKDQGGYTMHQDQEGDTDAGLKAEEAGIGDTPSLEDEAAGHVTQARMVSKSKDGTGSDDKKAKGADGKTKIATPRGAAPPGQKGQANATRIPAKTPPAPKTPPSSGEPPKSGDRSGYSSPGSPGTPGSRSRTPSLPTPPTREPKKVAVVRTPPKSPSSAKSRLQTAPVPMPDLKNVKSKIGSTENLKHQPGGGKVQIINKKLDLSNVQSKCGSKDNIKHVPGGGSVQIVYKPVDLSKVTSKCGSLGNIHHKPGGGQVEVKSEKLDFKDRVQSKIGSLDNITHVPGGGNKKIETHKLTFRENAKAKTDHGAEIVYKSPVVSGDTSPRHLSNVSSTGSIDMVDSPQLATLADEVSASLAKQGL

Binder	binding result [1]	reduction of total tau vs EV-CON (western blot) (GFP-Tau-(0N4R)) [%]
B1	binds	
B2		~40
B3		~40
B4		~40
